Common to all, as to test: GST-protein-interaction test
What all share (assay type): binding
What all share (conditions): in vitro

The target in one assay is T1, glucocorticoid receptors (Homo sapiens, UniProt P04150).
T1 construct: made in house; host or cells: in vitro translation, 35S-methionine labelled
T1 sequence (P04150 1-777): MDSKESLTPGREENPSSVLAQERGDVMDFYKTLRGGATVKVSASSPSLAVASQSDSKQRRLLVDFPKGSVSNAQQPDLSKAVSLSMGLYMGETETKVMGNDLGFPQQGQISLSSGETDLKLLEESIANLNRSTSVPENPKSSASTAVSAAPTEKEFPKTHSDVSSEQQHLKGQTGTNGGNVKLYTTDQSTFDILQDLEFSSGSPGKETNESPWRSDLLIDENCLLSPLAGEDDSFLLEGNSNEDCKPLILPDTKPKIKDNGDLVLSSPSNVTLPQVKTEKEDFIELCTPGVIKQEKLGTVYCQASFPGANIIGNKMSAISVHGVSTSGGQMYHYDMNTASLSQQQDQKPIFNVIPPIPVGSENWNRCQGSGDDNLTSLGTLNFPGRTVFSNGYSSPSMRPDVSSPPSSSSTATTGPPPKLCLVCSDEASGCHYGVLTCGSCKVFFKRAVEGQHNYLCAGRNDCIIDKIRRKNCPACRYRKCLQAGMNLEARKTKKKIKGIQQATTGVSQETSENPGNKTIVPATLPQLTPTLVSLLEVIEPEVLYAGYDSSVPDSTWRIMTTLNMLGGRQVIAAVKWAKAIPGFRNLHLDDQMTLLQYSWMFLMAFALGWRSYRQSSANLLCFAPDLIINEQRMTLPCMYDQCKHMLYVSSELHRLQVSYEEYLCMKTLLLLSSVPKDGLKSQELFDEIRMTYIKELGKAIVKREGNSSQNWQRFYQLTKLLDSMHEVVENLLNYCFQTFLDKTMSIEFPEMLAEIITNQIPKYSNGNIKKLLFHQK
The protocol:
(§1) To measure the interaction between SLIM3 and the nuclear receptors in vitro, the GST-Slim3 fusion protein was immobilized by means of glutathione-sepharose and incubated with several in vitro-translated ^35S-methionine-labeled nuclear receptors. The complete human androgen receptor binds to GST-Slim3. This in vitro interaction is not ligand-dependent under standard conditions. The complete human androgen receptor binds specifically to GST-Slim3, but not to the GST protein alone. To safeguard the specificity between the human androgen receptor and SLIM3, another GST-protein-interaction test was carried out (GST-protein-interaction assay). This test is described in E. PFITZNER et al. (1995) Functional Antagonism Between the Retinoid Acid Receptor and the Viral Transactivator BZLF1 is Mediated by Protein-Protein Interactions. Proc Natl Acad Sci USA Vol. 92, pp. 12265-12269.

For assay [1], the target named is T2, progesterone receptor alpha (Homo sapiens, UniProt P06401).
T2 construct: made in house; host or cells: in vitro translation, 35S-methionine labelled
T2 sequence (P06401 1-769 isoform P06401-2): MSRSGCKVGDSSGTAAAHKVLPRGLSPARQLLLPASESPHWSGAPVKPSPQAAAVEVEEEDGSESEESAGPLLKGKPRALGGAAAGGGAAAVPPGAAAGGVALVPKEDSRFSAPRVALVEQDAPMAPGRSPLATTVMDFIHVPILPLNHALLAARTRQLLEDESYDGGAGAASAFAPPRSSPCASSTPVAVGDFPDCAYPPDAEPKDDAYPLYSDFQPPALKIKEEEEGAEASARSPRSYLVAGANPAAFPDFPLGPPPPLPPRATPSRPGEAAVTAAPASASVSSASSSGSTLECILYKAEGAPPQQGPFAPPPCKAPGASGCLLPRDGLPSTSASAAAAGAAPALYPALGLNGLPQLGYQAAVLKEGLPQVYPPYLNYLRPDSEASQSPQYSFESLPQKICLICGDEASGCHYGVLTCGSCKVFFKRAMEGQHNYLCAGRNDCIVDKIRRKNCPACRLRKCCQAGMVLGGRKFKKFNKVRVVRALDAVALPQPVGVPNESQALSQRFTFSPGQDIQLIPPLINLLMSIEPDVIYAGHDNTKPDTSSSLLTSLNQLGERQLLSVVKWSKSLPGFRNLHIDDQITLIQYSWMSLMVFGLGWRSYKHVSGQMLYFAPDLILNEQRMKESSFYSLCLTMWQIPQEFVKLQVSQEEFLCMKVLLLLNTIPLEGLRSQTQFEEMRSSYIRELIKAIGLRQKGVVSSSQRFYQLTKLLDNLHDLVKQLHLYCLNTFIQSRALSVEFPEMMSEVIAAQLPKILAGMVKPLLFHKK
The protocol:
as §1

Another assay deals with co-activator TIF2 (Homo sapiens, UniProt Q15596). The protocol: as §1
The target in assay [2] is T3, progesterone receptor beta (Homo sapiens, UniProt P06401).
T3 construct: made in house; host or cells: in vitro translation, 35S-methionine labelled
T3 sequence (P06401 1-933): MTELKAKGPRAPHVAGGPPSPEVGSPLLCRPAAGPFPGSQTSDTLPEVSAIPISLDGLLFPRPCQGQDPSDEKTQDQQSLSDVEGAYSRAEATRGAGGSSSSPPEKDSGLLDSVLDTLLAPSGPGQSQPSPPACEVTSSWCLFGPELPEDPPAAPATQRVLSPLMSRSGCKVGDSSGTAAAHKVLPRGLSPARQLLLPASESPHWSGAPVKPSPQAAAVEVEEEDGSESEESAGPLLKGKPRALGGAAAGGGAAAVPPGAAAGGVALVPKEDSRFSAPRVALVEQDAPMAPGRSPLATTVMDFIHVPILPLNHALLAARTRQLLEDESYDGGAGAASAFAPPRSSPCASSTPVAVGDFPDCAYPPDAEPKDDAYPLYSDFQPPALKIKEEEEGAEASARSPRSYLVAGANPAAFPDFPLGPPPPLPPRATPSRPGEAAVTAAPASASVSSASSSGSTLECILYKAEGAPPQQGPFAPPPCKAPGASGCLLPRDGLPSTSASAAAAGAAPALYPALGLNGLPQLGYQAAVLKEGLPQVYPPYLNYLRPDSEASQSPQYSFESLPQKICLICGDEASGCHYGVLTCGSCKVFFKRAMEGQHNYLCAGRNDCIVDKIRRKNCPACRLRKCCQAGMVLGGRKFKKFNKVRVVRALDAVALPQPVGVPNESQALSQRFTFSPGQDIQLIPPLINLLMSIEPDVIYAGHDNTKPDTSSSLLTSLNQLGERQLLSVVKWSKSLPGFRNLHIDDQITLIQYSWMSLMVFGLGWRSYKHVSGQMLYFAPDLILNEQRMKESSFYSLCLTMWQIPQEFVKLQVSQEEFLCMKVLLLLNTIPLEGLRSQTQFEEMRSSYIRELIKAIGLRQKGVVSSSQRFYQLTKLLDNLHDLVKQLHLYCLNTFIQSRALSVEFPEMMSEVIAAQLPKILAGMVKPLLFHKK
The protocol:
as §1

co-activator TIF2, sequence (Q15596 whole entry): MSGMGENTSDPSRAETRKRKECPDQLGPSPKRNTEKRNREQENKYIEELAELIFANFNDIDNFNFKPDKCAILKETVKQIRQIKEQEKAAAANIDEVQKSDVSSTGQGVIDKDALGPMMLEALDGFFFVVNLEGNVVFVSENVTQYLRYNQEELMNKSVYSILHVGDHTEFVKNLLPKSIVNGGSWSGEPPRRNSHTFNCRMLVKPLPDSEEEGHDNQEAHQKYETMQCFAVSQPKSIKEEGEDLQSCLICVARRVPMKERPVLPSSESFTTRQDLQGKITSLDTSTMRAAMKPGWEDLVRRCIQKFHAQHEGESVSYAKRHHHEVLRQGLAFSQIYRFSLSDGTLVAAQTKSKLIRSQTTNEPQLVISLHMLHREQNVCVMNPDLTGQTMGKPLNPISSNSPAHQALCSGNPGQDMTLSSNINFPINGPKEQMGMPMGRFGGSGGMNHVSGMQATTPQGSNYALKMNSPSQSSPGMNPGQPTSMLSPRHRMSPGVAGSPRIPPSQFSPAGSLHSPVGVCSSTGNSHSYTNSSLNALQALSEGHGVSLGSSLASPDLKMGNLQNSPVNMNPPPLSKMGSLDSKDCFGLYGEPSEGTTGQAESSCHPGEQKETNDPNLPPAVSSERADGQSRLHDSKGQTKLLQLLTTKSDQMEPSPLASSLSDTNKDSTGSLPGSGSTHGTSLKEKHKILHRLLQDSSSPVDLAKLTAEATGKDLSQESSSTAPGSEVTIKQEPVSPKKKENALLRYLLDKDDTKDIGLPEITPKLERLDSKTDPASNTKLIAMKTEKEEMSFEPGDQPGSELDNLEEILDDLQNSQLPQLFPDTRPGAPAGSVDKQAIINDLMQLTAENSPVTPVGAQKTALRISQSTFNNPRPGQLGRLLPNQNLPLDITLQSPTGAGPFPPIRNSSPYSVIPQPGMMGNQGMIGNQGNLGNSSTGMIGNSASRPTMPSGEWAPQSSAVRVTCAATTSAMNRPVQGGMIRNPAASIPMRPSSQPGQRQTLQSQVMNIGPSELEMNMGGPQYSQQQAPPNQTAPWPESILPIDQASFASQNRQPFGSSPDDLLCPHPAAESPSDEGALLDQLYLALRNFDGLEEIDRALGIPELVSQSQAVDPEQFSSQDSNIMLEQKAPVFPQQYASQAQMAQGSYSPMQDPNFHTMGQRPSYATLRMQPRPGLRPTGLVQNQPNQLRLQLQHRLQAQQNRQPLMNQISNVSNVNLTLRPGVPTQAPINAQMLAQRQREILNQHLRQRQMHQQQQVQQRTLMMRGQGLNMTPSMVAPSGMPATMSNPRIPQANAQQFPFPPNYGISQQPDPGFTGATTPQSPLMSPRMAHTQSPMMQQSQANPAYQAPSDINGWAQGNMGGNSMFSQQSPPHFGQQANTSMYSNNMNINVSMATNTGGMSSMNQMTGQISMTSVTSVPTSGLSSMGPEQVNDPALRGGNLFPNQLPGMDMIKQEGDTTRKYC
co-activator TIF2, sequence (Q14192 whole entry partner): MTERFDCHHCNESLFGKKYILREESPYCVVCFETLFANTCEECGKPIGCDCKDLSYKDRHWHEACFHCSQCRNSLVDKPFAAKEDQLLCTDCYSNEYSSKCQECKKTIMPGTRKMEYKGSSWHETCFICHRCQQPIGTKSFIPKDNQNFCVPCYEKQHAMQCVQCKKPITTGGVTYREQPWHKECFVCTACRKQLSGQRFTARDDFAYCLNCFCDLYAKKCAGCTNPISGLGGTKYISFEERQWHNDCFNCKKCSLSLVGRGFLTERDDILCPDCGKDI

Turning to “SLIM3: LIM-domain protein of 279 amino acids, co-activator for nuclear receptors AR and ERβ”, the “bond to SLIM3” value (in the assay with glucocorticoid receptors; in assay [1]; in assay [2]) was “no bond” throughout. In the assay with co-activator TIF2, the interaction with co-activator entry is given as “interacts”.

The values above are taken from US20020004209A1, “Use of SLIM3 for binding to molecules” (Schering Aktiengesellschaft Patents, priority 1999, published 2002).
